Laboratory results taken from the supplement of paper PMC10567573.
± gives the standard deviation.

Assay: protein stability index of a GFP-peptide fusion (GPS, HEK-293T) (PSI 1-6); higher = more stable
[1] = treatment: DMSO, c terminus: a fixed tail appended
[2] = treatment: MLN4924 1 uM, 8 h, c terminus: a fixed tail appended
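Also: 24-mer peptide tiles fused after GFP, lentivirally expressed, FACS-sorted into six equal bins by GFP/DsRed ratio, decoded by Illumina sequencing, PSI is the read-weighted mean bin number.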

Sequence	protein stability index [1]	protein stability index [2]	protein stability index (treatment: DMSO, c terminus: native)	protein stability index (treatment: MLN4924 1 uM, 8 h, c terminus: native)
QGEQLEVPERLLVVLDMEEGTLGY [SPSB2]	2.86 ± 0.34	3.06 ± 0.24		
ENLSVPVIGALLRFNQAILVSRHD [LPCAT4]	2.43 ± 0.61	2.5 ± 0.34		
LASHLPVGVMLPHNTTEAPGPHSA [ZC2HC1C]	4.3 ± 0.21	4.17 ± 0.21		
EAITSASFLEQIMAPLQPSTSRAH [FAM189A2]	3.52 ± 0.13	3.59 ± 0.22		
VDFNTLKSIGSEPHEDHVFLVANF [MATN2]	2.06 ± 0.3	2.18 ± 0.18		
AGCCQVFDALDDYEHHYHTLHGNV [ZNF511]	2.84 ± 0.35	2.88 ± 0.23		
VFLGNKRSLSERTVDKCFGRKKYD [SPATS1]	2.82 ± 0.24	3.21 ± 0.16		
CEGKPYNQKSDIWALGCVLYELAS [NEK8]	3.08 ± 0.74	2.88 ± 0.72		
LNEEQTLQEVPTGLDSISHDSANC [ETS2]	5.54 ± 0.073	5.33 ± 0.18		
RYSCESRIRSYLREVSSYPSTVGA [DFFB]	2.6 ± 0.27	2.73 ± 0.46		
NRRSSRETREYAPPSRGHGYRDYG [RBMY1A1]	4.27 ± 0.24	4.09 ± 0.23		
PVSASRSSLDLSYYPTSSSTSFMS [EMD]	3.38 ± 0.21	3.38 ± 0.13		
EKAHECTDCGKAFLKKSQLTEHKR [ZNF649]	3.54 ± 0.29	3.81 ± 0.38		
LPCNPCATTNASGNSCGPCGTSQK [KRT34]	4.71 ± 0.12	4.86 ± 0.23		
VSHPIIYRGAVYADNMEFEQCIKL [FEM1B]	2.5 ± 0.48	2.5 ± 0.25		
LVELLQPFKQVAEMLSASRYPTIS [ZBED1]	2.65 ± 0.66	2.29 ± 0.57		
DKPSEPASEEGSESEGSESSGRSC [SMG5]	5.56 ± 0.25	5.6 ± 0.14		
AGRNVLRWDLSPEQIKTRTEELIV [NLN]	2.52 ± 0.34	3.23 ± 0.47		
TEPETAPTTEPETEPEDDRGPVVP [GNAS]	5.61 ± 0.14	5.63 ± 0.27		
YVQEKRDGLKRRQQLEEELLRAKI [RAD54B]	2.71 ± 0.66	3.38 ± 0.78		
TFRVSSDLIKHQRIHTEEKPYKCQ [ZNF75A]	3.67 ± 0.15	3.8 ± 0.23		
KVSEGQADIMISFVRGDHRDNSPF [MMP1]	3.1 ± 0.41	3.09 ± 0.52		

Sequence	protein stability index [1]	protein stability index [2]	protein stability index (treatment: DMSO, c terminus: native)	protein stability index (treatment: MLN4924 1 uM, 8 h, c terminus: native)
TLAGLRSRRLKQPKAFCLRDVAP [MIR22HG]			3.11 ± 0.44	2.99 ± 0.21
EAVARHMLIFSLALEEPEKMGLQE [DNAAF3]	2.47 ± 0.55	2.28 ± 0.27		
MGCTLSAEDKAAVERSKMIDRNLR [GNAI1]	4.64 ± 0.32	4.54 ± 0.1		
YAPEAPYTSPDKLKDIFMFITRQL [PDS5B]	2.59 ± 0.28	1.97 ± 0.34		
EVDVQEAGAGWWVGAAYASLRRRG [TRIM14]	3.4 ± 0.28	3.38 ± 0.4		
QYSVEGGKETLTPSELRDLVTQQL [S100A14]	4.59 ± 0.23	4.55 ± 0.13		
DGDDKVFRRAPSWRKRFRPREHHG [PPFIA4]	3.48 ± 0.55	4.58 ± 0.14		
ADIPQDQLVVMHPTPQVDELDILP [BTBD10]	5.11 ± 0.17	5.24 ± 0.15		
DPEEAIRHDVIVSIVTAAKKDILL [PDS5B]	2.3 ± 0.15	2.54 ± 0.3		
KLEWAIDEDELRKSLSELVDDKFG [PSD2]	4.19 ± 0.086	4.09 ± 0.26		
INYKLKSVAHLPWRMLTYKALNTF [CLPTM1]	2.44 ± 0.65	2.31 ± 0.36		
NYSQDAADACDIDEIEEVPTTSHR [NETO1]	5.55 ± 0.18	5.49 ± 0.17		
ANTIRGGGCYFGPDVTQQLLQKYN [PPEF2]	2.44 ± 0.35	2.59 ± 0.41		
VLKDELQLYGDAPGEVVPSGESGL [TMEM40]	5.14 ± 0.24	5.26 ± 0.23		
TGVVEFVRKEDMTYAVRKLDNTKF [SRSF1]	3.02 ± 0.3	3.26 ± 0.29		
DKVIMKLGKTNAKAVSEMRQKIWN [DYNC2LI1]	2.31 ± 0.12	2.54 ± 0.32		
TVAGIVGSSYGILQLFSSTLVGCW [MFSD9]	2.96 ± 0.83	2.89 ± 0.32		
TLDKCGICQGDGSSCTHVTGNYRK [ADAMTSL2]	4.91 ± 0.35	4.97 ± 0.33		
GADGVMRTMAPEKLLKSMPILQGQ [SNAP91]	3.76 ± 0.32	3.77 ± 0.28		
SFGNCTYNLTILDCLQGIRKGLQH [CDC14A]	2.38 ± 0.36	2.33 ± 0.44		
ALLDSLPPPVESELALFQMSVLWL [KLHL14]	2.45 ± 0.23	2.03 ± 0.19		
DPKITCKQECLITTFQDVYFVSES [TPH1]	2.5 ± 0.36	2.14 ± 0.49		
